Assay results reported in patent US20090082262A1 (published 2009).
*: point of attachment. Nonanoyl = CCCCCCCCC(=O)*

Target: T1, chemokine receptor 1 (CCR1) (UniProt P56482 1-355)
T1 chain: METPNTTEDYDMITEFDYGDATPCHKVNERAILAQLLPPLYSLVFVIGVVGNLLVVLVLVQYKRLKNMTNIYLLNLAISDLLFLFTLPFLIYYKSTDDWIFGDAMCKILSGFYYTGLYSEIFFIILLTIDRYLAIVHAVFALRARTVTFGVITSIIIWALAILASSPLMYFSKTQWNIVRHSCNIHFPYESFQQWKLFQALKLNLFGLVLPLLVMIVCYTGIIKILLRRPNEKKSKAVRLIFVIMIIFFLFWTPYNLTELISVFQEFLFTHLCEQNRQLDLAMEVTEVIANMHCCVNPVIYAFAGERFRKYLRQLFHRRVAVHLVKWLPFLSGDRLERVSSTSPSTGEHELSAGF
Assay: competition binding

Binder | IC50
HCC-1[7-74] (ligand) SRGPYHPSECCFTYTTYKIPRQRIMDYYETNSQCSKPGIVFITKRGHSVCTNPSDKWVQDYIKDMKEN | 4.36 nM
HCC-1[8-74] (ligand) RGPYHPSECCFTYTTYKIPRQRIMDYYETNSQCSKPGIVFITKRGHSVCTNPSDKWVQDYIKDMKEN | 2.42 nM
HCC-1, residues 6-74 (ligand) SSRGPYHPSECCFTYTTYKIPRQRIMDYYETNSQCSKPGIVFITKRGHSVCTNPSDKWVQDYIKDMKEN | 6.52 nM
NNY-HCC-1[10-74] (ligand, ends and bridges not checked) Nonanoyl-PYHPSECCFTYTTYKIPRQRIMDYYETNSQCSKPGIVFITKRGHSVCTNPSDKWVQDYIKDMKEN | 0.0843 nM
HCC-1[12-74] (protein) HPSECCFTYTTYKIPRQRIMDYYETNSQCSKPGIVFITKRGHSVCTNPSDKWVQDYIKDMKEN | 50.1 nM
HCC-1[10-74] (ligand) PYHPSECCFTYTTYKIPRQRIMDYYETNSQCSKPGIVFITKRGHSVCTNPSDKWVQDYIKDMKEN | 0.182 nM
PHC-1 (HCC-1[9-74]) (ligand) GPYHPSECCFTYTTYKIPRQRIMDYYETNSQCSKPGIVFITKRGHSVCTNPSDKWVQDYIKDMKEN | 0.104 nM
HCC-1[11-74] (ligand) YHPSECCFTYTTYKIPRQRIMDYYETNSQCSKPGIVFITKRGHSVCTNPSDKWVQDYIKDMKEN | 5.07 nM
RANTES (ligand) SPYSSDTTPCCFAYIARPLPRAHIKEYFYTSGKCSNPAVVFVTRKNRQVCANPEKKWVREYINSLEMS | 0.166 nM
